Results on 2 molecules are retold here after publication PMC7506551, “A heterotrimeric SMARCB1–SMARCC2 subcomplex is required for the assembly and tumor suppression function of the BAF chromatin-remodeling complex” (Cell Discovery, 2020).

Assay [1] has as its target T1, SMARCB1 (aa 169–385) (human, UniProt Q12824 169-385).
T1 construct: SMARCB1/BAF47/INI1/SNF5, human, residues 169-385, holds the Rpt1 and Rpt2 motifs; resolved 184-356 in the crystal; they may stand in the supplementary information; also called SMARCB1^(169–385); BAF47
The experiment in a line: ITC; conditions not shown; two-site binding model for SMARCC2 325-518 with SMARCB1 169-385. The note with it: both partners purified. A general note: In ITC the heat of successive injections is recorded.

Assay [2] deals with T2, SWIRM domain of SMARCC2 (aa 423–518) (human, UniProt Q8TAQ2 423-518).
T2 construct: SMARCC2/BAF170, human, SWIRM domain, residues 423-518; also called SMARCC2^(423–518); SMARCC2^SWIRM
The assay is described as above. The note with it: both partners purified.

B1: SMARCC2 (aa 325–518) (domain or fragment, human, UniProt Q8TAQ2 325-518, looked up)
chain: TKSKRGHREEEQEDLTKDMDEPSPVPNVEEVTLPKTVNTKKDSESAPVKGGTMTDLDEQEDESMETTGKDEDENSTGNKGEQTKNPDLHEDNVTEQTHHIIIPSYAAWFDYNSVHAIERRALPEFFNGKNKSKTPEIYLAYRNFMIDTYRLNPQEYLTSTACRRNLAGDVCAIMRVHAFLEQWGLINYQVDAES
notes: SMARCC2/BAF170, human, residues 325-518, holds the SWIRM domain; resolved 423-514 in the crystal, residues 325-422 possibly degraded during crystallization; Two copies stand in the heterotrimer with one SMARCB1 169-385; also called SMARCC2^(325–518); BAF170
Turning to B1, the “Kd of one of the two sites (two-site binding model)” value in assay [1] was found to be 112 nM.

B2: isolated Rpt1 motif of SMARCB1 (domain or fragment)
chain: DDHDPAVIHENASQPEVLVPIRLDMEIDGQKLRDAFTWNMNEKLMTPEMFSEILCDDLDLNPLTFVPAIASAIRQQIESYPTDS
Consider B2, for which, in assay [2], the Kd (in general, the equilibrium constant for the complex coming apart) was around 120 nM.
